Test results from the nanobody polyreactivity screen of Harvey et al. (2022).

assay: yeast display, Sf9 membrane polyspecificity reagent, FACS + sequencing; frameworks hold sequencing errors
Outline: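 Genes from sorted yeast were amplified by colony PCR, read by MiSeq 2 × 250 sequencing and filtered on CDR length. These cells carried a synthetic nanobody library in Saccharomyces cerevisiae BJ5465 and were sorted by FACS into low and high (top ~1%) gates on anti-HA and streptavidin fluorescence. Polyreactivity is labelled according to the gate of origin.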

Sequence | polyreactivity (PSR sort gate)
QVQLVESGGGLVQAGGSLRLSCAASGSILTINAMGWYRQAPGKERELVAAITGNGGSTDYADSVKGRFTISRDTAKNTVYLQMNSLKPVDTAVYYCAARLYYFGRSGVKYRDGYWGQGTQVTVSS | high polyreactivity
QVQLVESGGGLVQARGSLRLSCASSGRIFDNYAMGWYRQAPGKERELVAAITYIDSGTYYADSVKGRFTISRDNAKNTVYLQMNSLKPEDTAVFYCAVGLNSDSKRKTQKYGYWGQGTQVTVSS | low polyreactivity
QVQLVESGGGLVQAGGSLRLSCAASGLTFYLYAMGWNRQAPGKERELVAAINSRGGNTYYADSVKGRFTISRDNAKNTVYLQMNSLKPEDTAVYYCNAGRTFYSYAYGYWGQGTQVTVSS | high polyreactivity
QVQIVESGGGLVQAGGSLRLSCAASGRIIRINAMGWSRQAPGKERELVAAITRGGTTYADSVKGRFTISRDNAKNTVYLQMNSLKPEDTAVYYCNARTGRSPTGFRYWGQGTQVTVSS | high polyreactivity
QVQLVESGGGLVQAGCTLRLSCAASGSIAYNAMGWYRQAPGKERELVASIRASGGRTYYADSVKGRFTISRDNAKNSVYLQMNSLKPEDTAVYYCAAYHGSKPLHHKGYDYWGQGTQVSVSS | low polyreactivity
QVQLVESGGGLVQAGGSLRLSCAASGSIFSSNAMGWYRQAPGSTNYADSVKGRFTISRDNAKNTVYLQMNSLKPEDTAVYYCAKDYVLFQYVDFQDDDYWGQGTQVTVSS | low polyreactivity
QVQLVESGRGLVQAGGSLRLSCDASGSILRENAMGWSRQAPGKERELVAVITRGGNTYYADSVKGRFTISRDNAKYTFYLQMNSMKREDTAVYYCAAKRRERYGQTYGYWGQGTQVTVSS | high polyreactivity
QVQLVESGGGLVQAGGSLRLSCAASGLICGFYAMGWYRQAPGKERELVADITTSGARTYYADSVKGRFTISRDNAKNTVYLQMYSLKPEDTAVYYCNKDHSSYGASGYDYWGQGTQVTVSS | low polyreactivity
QVQLVESGGGLVQAGGSLRLSCAASGNTFSPYVMGWYRQAPGKERELVAAISKGGGSTYYADSVKGRFTISRDNAKNTVYLQMNSLKPEDTAVYYCAASAGPRASYYYWGQGTQVTVSS | high polyreactivity
QVQLVESGGGLVQARGSLRLSCAASGFTFYSNAMGWYRQAPGKERELVAVINSDDDSTYYADSVKGRFTISRDNAKNTVYLQMNSLKPEDTAVYYCNKVWRVGKYPYSDRYYFGGGYWGQGTQVTVSS | high polyreactivity
QVQLVESGGGLVQAGGSLRLSCAASGRIFRNTMGWYIQAPGKERELVAAITDTTDSTYYADSVKGRFTISRDNAKNTVYLQMYSLKPEDTAVYYCAARYGGYVNRPYYYWGQGTQVTVSS | low polyreactivity
QVQLVESGGGLVQAGGSLRLSCAASGSIFVTNAMGWYRQEPGKERELVAAISVSGGSTFYADSVKGRFTISRDNAKNTVYLQMNSLKPEDTAVYYCNTVRSPPGHDYWGQGTQVTVSS | low polyreactivity
QVQLVESGGRLVQAGGSLRLSCPDSGSTFILNAMGWYRQAHGKERELVATISSSVTSTYYADSVKWRFTISRDHAKNTVYLQMNSLKPEDTAVYYCNADYYTTSYLQRFYHYGVEYDYLGQGTQVTVSS | low polyreactivity
QVQLVESGGGLVQAGGSLRLSCAASGSIFYPYVMGWYRQAPGKERELVATITWSGDDTNYADSVKGRFTISRDNAKNTVYLQMNSLKPEDTAVYYCAVGYGDYLYYDYDYWGQGTQVTVSS | low polyreactivity
QVQLVESGGGLVQAGGSLRLSCAASGLIFSQNAMGWYRQAPGKERELVARITWSGTSTYYADSVKGRFTISRDNAKNTVYLQMNSLKPEDTAVYYCAADRPRGRETVDYWGQGTQVTVSS | high polyreactivity
QVLLVESGGGLVQAGGSLRISCAASVRIVKSYAMGWYRQAPGKESELVAAISRGGRTNYADSVKGRFTISRDNAKNTVYLQMNSLKPEDTAVYYCAARFITPYDHYGYWGQGTQVTVSA | high polyreactivity
QVQLVESGGGLVQAGGSLRLSCADSGSISYSYAMGWYRQAPGKDRELVAAISWRGVSTYYADSVKGRFTISRDNAKNTVYLQMNSLKPEDTAVYYCNAVHHYPEHIGGGYWGQGTLVTVSS | low polyreactivity
QVQLVESGGGLVQAGGSLRLSCAASGRTFIDYGMGWYRQAPGKERELVAAISSGGSTYYADSVKGRFTISRDNAKNTVYLQMNSLKPEDTAVYYCAAPGFKYDVYAGYVLNGGGDYWGQGTQVTVSS | low polyreactivity
QVQHVESGGGLVQAGGSLRLSCAASGFIFASYAMGWSRQPPGKERELVAAISWRGGSTYYADSVKGRFTISRDNAKNTLYLQMNSLKPVDTAVYYCNAYVYVCTGRGYDTLDYWGQGTQVTVSS | low polyreactivity
QVQLVESGGGLVQAGGSLRLSCAASGRTFKYYAMGWYSQAPGKERELVAAITRSGVSTSYADSVKGRFTISRDNAKNTVYLQMNSLKPEDTAVYYCNVYGYTYYTRGVGYWGQGTQVTVSS | high polyreactivity
QVQLVESGGGLVQAGGSLRLSCAASGRIFVVNAMGWYRQAPGKERELVAAITRRGGSTYADSVKGRFTISRDNAKNTVYLQMNSLKPEDTAVYYCNKLVTGGSWSPGHYRYNYWGQGTQVTVSS | high polyreactivity
QVQLVESGGGLVQAGGSHRLSCAASGRIFDDNALGWYCQAPGKERELVAAITGGGRTNYADSVKGRFTISRDNAKNTVYLQMNSLKPEDTAVSYCAAATYGWVIYIYDYWGQGTQVNVSS | low polyreactivity

Sequence | polyreactivity (PSR sort gate)
QVQLVESGGGLVQAGGSLRLICAASGIIFDSYAMGWYSQEPGKERELVAAITSDSGRTYYADSVKGRFTISRDNAKNNVYLEMNSLKPEDTAVYYCAKRWDGPYDYWGQGTQVTVSS | low polyreactivity
QVQLVESGGGLVQAGGSLRLSCAASGRIFDTNVRGWSRQAPGKERELVAAISSGGSTYYADSVKGRFTISRDNAKTTVYLQMNSLKPEDTAVYYCAAESRTSRARRYYWGQGTQVTVSS | high polyreactivity
QVQLVESGGGLVQAGGSLRLSCAASGRIFAPYAMGWYRQAPGKERELVAAITSGGSTNYADSVKGRFTISRDNAKNTVYLQMNSLKPEDTAVYYCAAEASYNYGKYVVTYDYWGQGTQVTVSS | high polyreactivity
QVQLVESGGGLVQAGGSLRLSCAASGRIFGYYAMGWYRQAPGKERELVAAITRNGGSTYYADSVKGRFTISRDNAKNTVYLQMNSLKPEDTAVYYCAATKGGGRGYWGQGTQVTVSS | high polyreactivity
QVQLVESGGGLVQAGGSLRLSCAASGSTFIANDMGWYRQAPGKERELVAAISWSGGSTYADSVKGRFTISRDNAKNTVYLQMNSLKPEDTAVYYCAADWQVVWDYNYWGQGTQVTVSS | low polyreactivity
QVQLVESGGGLVQAGGSLRLSCAASGFIVKRYARGWYRQAPGKERELVAAITSSGGRTYYADSVKGRFTISRDTAKNTVYLQMNSLKPEDTAVYYCAKGWSTYYTKMNYWGQGTQVTVSS | high polyreactivity
QVQLVESGGGLVQAGGSLRLSCAASGRIFCVYAMGWYRQAPGKERELVAAIDTSDGSTNYADSVKGRFTISRDNAKYTVYLQMNSLKPEDTAVYYCNATDSYVPFDYWGQGTQVTVSS | low polyreactivity
QVQLVESGGGLVQAGGSLRLSCAASGSIFGYYAMGWYRQAPGKEREFVAAISSRKDSTYADSVKGRFTISRDNAKNTVYLQMNSLKPEDTAVYYCAASTFRLTYAGHSYDYWGQGTQVTVSS | high polyreactivity
QVQLVESGGGLVQAGGSLRLSCAASGRIFGVNAMGWYRQAPGKERELVAAITWSGGRTYYADSVKGRFTISRDNAKNTVFLLMNSMKQEDTAVYYCNTGLSGRRYGFGLSFCMDYWGQGTQVTVSS | low polyreactivity
QVQLVESGGGLVQAGGSLRLSCAASGFIFRYYAMRWYRQAPGKERELVATITYGGTSTSYADSVKGRFTISRDNAKNTVYLQMNSLKPEDSAVYYCATDRVSRVRPFWNVWRSNYWGQGTQVTVSS | high polyreactivity
QVQLVESGGGLVQAGGSLRLSCAASGSTFPKYGMGWYRQAPGKEREFVARINWNGGGTYYADSVKGRFTISRDYAKNTVYLQMNSLKPEDTAVYYCNARKRGARFILGYDYWGQGTQVTVSS | low polyreactivity
QVQLVESGGGLVQAGGSLRLSCAASGSIFADYVMGWYRQAPGKDRELVAAITRRGRTYYADSVKGRFTISRDNAKNTVYLQMNSLKPEDTAVYYCAKVGSGNIDSWGQGTQVTVSS | low polyreactivity
QVQLVESGGGLVQAGCSLRLSCAASGSTFPYNSMGWYRQAPGKERELVAAITSSGRTNYADSVKGRFTISRDNAKNTVYLQMNSLKPEDTAVYYCAAARWYAHRVDYWGQGTQVTVSS | low polyreactivity
QVQLVESGGGLVQAGGSLRLSCAASGSIFERNAMGWYRQAPGKERELVAAISDDDGSTYYADSVKGRFTISRDNAKNTVYLQMNSLKPEDTAVYYCNAYSHFGSFYPFDYWGQGTQVTVSS | low polyreactivity
QVQLVESGGGLVQAGGSLSLTCDASGFILYYYAMGRYRQAPGKERELVAAIDWDGDRTYYADSVKGRFTISRDIAKNTVYLQMNSLKPEDTAVYYCAAEWPVNFDYWGQGTQVTVSS | low polyreactivity
QVQLVESGGGLVQAGGSLRLSCAASGLIFSTYYMGWYRQAPRKERELVAAISTGGSTYCADSVKGRFTISRDNAKNTVYLQMNSLKPEDTAVYYCAAGYTYHSWPLYYWDYNYWGQGTQVTVSS | low polyreactivity
QVQLVESGGGLVQAGGSLRLTCAASGFIFKIYARGWYRQAPGKERELVARITRSGGSTYYADSVKGRFTISRDNAKNTVYLQMNSLKPEDTAVYSCNAELFRYVRYDYWGQGTQVTVSS | high polyreactivity
QVQLVESGGGLVQAGGRLRLSCAASGIIRGSYAMGWYRQAPGKERELVAGINSGGGTYYADSVKGRFTISRDNAKNTVYLQMNSLKPEDTAVYYCNARKSSGLSSYDWYSWEYGYWGQGTQVTVSS | low polyreactivity
QVQLVESGGGLVQAGGSLRLSCASSGRIFWRNTMGWYRQAPVKETEFVASINGSGGSTSYADSVKGRFTISRDNAMNTVYLQMISLKPEDTEVDYCATDVTYQDVQLDYWGQRTQVTVSS | low polyreactivity
QVQHVESAAGLVQAGGSLRLSCAASGRIFYATVMGWYRQAHGKVREFVAAIRWSGSTYYADSVKGRFTISRDNAKNTVYLQMNSLKRVDTAVYYCADEGSRWYYFFYVGGGYWGQGTQVTVSS | low polyreactivity
QVQLVESGGGLVQAGGSLRLSCAASGSTFAYYAMGWYRQAPGKERELVAAISRTGGSTYYADSVKGRFTISRDNAKNTVYLQMNSLKPEDNAVYYCNARGPVGTFDYDYWGQGTQVTVSS | low polyreactivity
